Experimental data published in patent US20260132182A1 (published 2026).
Starred links: 1 amine or outer side, 2 acyl side, 3 side chain; linkers in the order of their positions; H or OH if unused. Non-standard residues stand in square brackets, D forms with d. Groups on a side chain read outwards from the residue. *: point of attachment. Butyryl(4-SO2NHCO(CH2)16Tz) = O=C(CCCCCCCCCCCCCCCCc1nnn[nH]1)NS(=O)(=O)CCCC(=O)*; Decanoyl(10-(4-HOOC-PhO)) = O=C(O)c1ccc(OCCCCCCCCCC(=O)*)cc1; C20 diacid = O=C(O)CCCCCCCCCCCCCCCCCCC(=O)*; C18 diacid = O=C(O)CCCCCCCCCCCCCCCCC(=O)*; C16 diacid = O=C(O)CCCCCCCCCCCCCCC(=O)*; γGlu = O=C(O)[C@H](CCC(=O)[*:2])N[*:1]; εLys = N[C@@H](CCCCN[*:1])C(=O)[*:2]; Trx = NC[C@H]1CC[C@H](C(=O)O)CC1; AEEA = NCCOCCOCC(=O)O; Aib = CC(C)(N)C(=O)O

T1: human amylin-3 (a) receptor (human, UniProt P30988 25-474; O60896 24-148)
T1 sequence (looked up) 1: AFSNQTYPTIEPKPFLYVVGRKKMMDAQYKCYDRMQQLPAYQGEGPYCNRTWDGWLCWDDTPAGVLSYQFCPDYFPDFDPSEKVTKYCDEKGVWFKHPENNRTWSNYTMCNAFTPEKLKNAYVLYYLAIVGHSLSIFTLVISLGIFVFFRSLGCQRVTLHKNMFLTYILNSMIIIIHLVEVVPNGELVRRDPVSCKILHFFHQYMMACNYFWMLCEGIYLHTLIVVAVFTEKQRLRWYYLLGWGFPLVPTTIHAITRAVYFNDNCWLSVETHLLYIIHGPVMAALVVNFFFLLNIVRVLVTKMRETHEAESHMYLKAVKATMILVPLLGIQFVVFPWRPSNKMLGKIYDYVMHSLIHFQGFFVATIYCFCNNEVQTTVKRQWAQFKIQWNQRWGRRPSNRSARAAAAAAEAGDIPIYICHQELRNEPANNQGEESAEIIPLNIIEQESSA
T1 sequence (looked up) 2: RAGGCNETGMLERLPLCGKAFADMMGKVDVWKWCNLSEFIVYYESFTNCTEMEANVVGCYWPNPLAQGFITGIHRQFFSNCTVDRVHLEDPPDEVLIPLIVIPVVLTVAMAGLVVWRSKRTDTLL


Tests used:
[1] = target: T1, human amylin-3 (a) receptor; test: cell-based or functional assay
human GLP-1 receptor = human GLP-1 receptor (human, UniProt P43220 24-463); test: cell-based or functional assay

Row | Binder | Human AmyR3 potency [EC50 (pM)] [1] | Human GLP-1R potency [EC50 (pM)] (human GLP-1 receptor)
1 | Compound 0087 (peptide) peptide: HGEGTFTSDVSSYLEEQAARK([AEEA-AEEA-γGlu-C16 diacid])FIEWLVRGK([AEEA-AEEA-γGlu-C16 diacid])GEGGEASELSTAALGRLSAELHELATLPRTETGSGSP-NH2 | 97.9 pM | 23.8 pM
2 | Compound 0089 (peptide) peptide: H[Aib]EGTFTSDVSSYLEEQAARK([AEEA-AEEA-γGlu-C18 diacid])FIEWLVRGK([AEEA-AEEA-γGlu-C18 diacid])GEGGEASELSTAALGRLSAELHELATLPRTETGSGSP-NH2 | 65.5 pM | 5.7 pM
3 | Compound 0090 (peptide) peptide: HGEGTFTSDVSSYLEEQAARK([AEEA-AEEA-γGlu-C18 diacid])FIEWLVRGK([AEEA-AEEA-γGlu-C18 diacid])GEGGEASELSTAALGRLSAELHELATLPRTETGSGSP-NH2 | 70.9 pM | 32.6 pM
4 | Compound 0092 (peptide) peptide: H[Aib]EGTFTSDVSSYLEGQAAK([AEEA-AEEA-γGlu-C18 diacid])EFIAWLVRGRGGGGGGGGGGGGGEASELSTAALGRLSAELHELATLPRTETGSGSP-NH2 | 10.9 pM | 18.5 pM
5 | Compound 0093 (peptide) peptide: H[Aib]EGTFTSDVSSYLEGQAAK([AEEA-AEEA-γGlu-C18 diacid])EFIAWLVRGRGGGGGGGGGGGGGGGGGEASELSTAALGRLSAELHELATLPRTETGSGSP-NH2 | 8.6 pM | 7.5 pM
6 | Compound 0094 (peptide) peptide: H[Aib]EGTFTSDVSSYLEGQAAK([AEEA-AEEA-γGlu-C20 diacid])EFIAWLVRGRGGGGGGGGGEASELSTAALGRLSAELHELATLPRTETGSGSP-NH2 | 11.3 pM | 7.5 pM
7 | Compound 0095 (peptide) peptide: H[Aib]EGTFTSDVSSYLEGQAAK([AEEA-AEEA-γGlu-Trx-C20 diacid])EFIAWLVRGRGGGGGGGGGEASELSTAALGRLSAELHELATLPRTETGSGSP-NH2 | 6.6 pM | 7.4 pM
8 | Compound 0097 (peptide) peptide: HGEGTFTSDVSSYLEEQAARK([AEEA-AEEA-γGlu-Decanoyl(10-(4-HOOC-PhO))])FIEWLVRGK([AEEA-AEEA-γGlu-Decanoyl(10-(4-HOOC-PhO))])GEGGGGGEASELSTAALGRLSAELHELATLPRTETGSGSP-NH2 | 93.1 pM | 10 pM
9 | Compound 0098 (Lys21 and Lys30 each (10-(4-carboxyphenoxy)decanoyl-gGlu-Ado-Ado); C-terminal amide) peptide: HGEGTFTSDVSSYLEEQAARKFIEWLVRGKGEGGGGGGGGGEASELSTAALGRLSAELHELATLPRTETGSGSP | 15.6 pM | 7.9 pM
10 | Compound 0019 (peptide) peptide: H[Aib]EGTFTSDVSSYLEGQAAK([AEEA-AEEA-γGlu-C18 diacid])EFIAWLVRGRGGQEPGQEPEASELSTAALGRLSAELHELATLPRTETGSGSP-NH2 | 26.5 pM | 13.7 pM
11 | Compound 0099 (peptide) peptide: HWEGTFTSDVSSYLEEQAARK([AEEA-AEEA-γGlu-Decanoyl(10-(4-HOOC-PhO))])FIEWLVRGK([AEEA-AEEA-γGlu-Decanoyl(10-(4-HOOC-PhO))])GEGEASELSTAALGRLSAELHELATLPRTETGSGSP-NH2 | 44.9 pM | 9.6 pM
12 | Compound 0100 (peptide) peptide: HWEGTFTSDVSSYLEEQAARK([AEEA-AEEA-γGlu-Decanoyl(10-(4-HOOC-PhO))])FIEWLVRGK([AEEA-AEEA-γGlu-Decanoyl(10-(4-HOOC-PhO))])GEGGGGGEASELSTAALGRLSAELHELATLPRTETGSGSP-NH2 | 30.4 pM | 6.8 pM
13 | Compound 0101 (Lys21 and Lys30 each (10-(4-carboxyphenoxy)decanoyl-gGlu-Ado-Ado); C-terminal amide) peptide: HWEGTFTSDVSSYLEEQAARKFIEWLVRGKGEGGGGGGGGGEASELSTAALGRLSAELHELATLPRTETGSGSP | 10.2 pM | 7.1 pM
14 | Compound 0102 (peptide) peptide: H[Aib]EGTFTSDVSSYLEEQAAREFIAWLVRGRK(Butyryl(4-SO2NHCO(CH2)16Tz))ELSTAALGRLSAELHELATLPRTETGSGSP-NH2 | 9.8 pM | 14.7 pM
15 | Compound 0103 (peptide) peptide: H[Aib]EGTFTSDVSSYLEEQAAREFIAWLVRGRK(Butyryl(4-SO2NHCO(CH2)16Tz))EASELSTAALGRLSAELHELATLPRTETGSGSP-NH2 | 11.6 pM | 28.1 pM
16 | Compound 0105 (peptide) peptide: H[Aib]EGTFTSDVSSYLEEQAARK([AEEA-AEEA-γGlu-C16 diacid])FIEWLVRGK([AEEA-AEEA-γGlu-C16 diacid])GEGQEPGGASELSTAALGRLSAELHELATLPRTETGSGSP-NH2 | 30.8 pM | 1.1 pM
17 | Compound 0109 (peptide) peptide: H[Aib]EGTFTSDVSSYLEEQAARK([AEEA-AEEA-γGlu-C18 diacid])FIAWLVRGK([AEEA-AEEA-γGlu-C18 diacid])GGGGGGGGGEASELSTAALGRLSAELHELATLPRTETGSGSP-NH2 | 19.1 pM | 3.2 pM
18 | Compound 0110 (peptide) peptide: H[Aib]EGTFTSDVSSYLEEQAARK([εLys-AEEA-AEEA-γGlu-C18 diacid])FIAWLVRGK([εLys-AEEA-AEEA-γGlu-C18 diacid])GGGGGGGGGEASELSTAALGRLSAELHELATLPRTETGSGSP-NH2 | 40.7 pM | 2.7 pM
19 | Compound 0114 (peptide) peptide: H[Aib]EGTFTSDVSSYLEEQAAREFIAWLVRGRK([AEEA-AEEA-γGlu-C18 diacid])GGEASELSTAALGRLSAELHELATLPRTETGSGSP-NH2 | 17.5 pM | 1 pM
20 | Compound 0115 (peptide) peptide: H[Aib]EGTFTSDVSSYLEEQAAREFIAWLVRGRK([AEEA-AEEA-γGlu-C18 diacid])EASELSTAALGRLSAELHELATLPRTETGSGSP-NH2 | 22.8 pM | 2.2 pM
21 | Compound 0116 (peptide) peptide: H[Aib]EGTFTSDVSSYLEEQAARK([AEEA-AEEA-γGlu-C18 diacid])FIAWLVRGRK([AEEA-AEEA-γGlu-C18 diacid])GGEASELSTAALGRLSAELHELATLPRTETGSGSP-NH2 | 21.7 pM | 1.5 pM
